Source: patent US20240343826A1, “Compositions and Methods for Targeting Cancer Stem Cells” (Seagen Inc., priority 2015, published 2024)

B1: S3F: anti-STn IgG2a antibody combining 3F1 variable domains with IgG2a constant domains; heavy chain SEQ ID NO: 5, light chain SEQ ID NO: 6 (antibody)
heavy: QVQLQQSDAELVKPGASVKISCKASGYTFTDHAIHWVKQKPEQGLDWIGYISPGNGDIKYNEKFKDKVTLTADKSSSTACMHLNSLTSEDSAVYFCKRSLLALDYWGQGTTLTVSSAKTTAPSVYPLAPVCGDTTGSSVTLGCLVKGYFPEPVTLTWNSGSLSSGVHTFPAVLQSDLYTLSSSVTVTSSTWPSQSITCNVAHPASSTKVDKKIEPRGPTIKPCPPCKCPAPNLLGGPSVFIFPPKIKDVLMISLSPIVTCVVVDVSEDDPDVQISWFVNNVEVHTAQTQTHREDYNSTLRVVSALPIQHQDWMSGKEFKCKVNNKDLPAPIERTISKPKGSVRAPQVYVLPPPEEEMTKKQVTLTCMVTDFMPEDIYVEWTNNGKTELNYKNTEPVLDSDGSYFMYSKLRVEKKNWVERNSYSCSVVHEGLHNHHTTKSFSRTPGK
light: DIVMTQSHKFMSTSVGDRVSITCKASQDVGTNIAWYQQKPGRSPKVLIYSASTRHTGVPDRFTGSGSGTDFTLTISNVQSEDLTDYFCQQYSSFPLTFGVGTKLELKRADAAPTVSIFPPSSEQLTSGGASVVCFLNNFYPKDINVKWKIDGSERQNGVLNSWTDQDSKDSTYSMSSTLTLTKDEYERHNSYTCEATHKTSTSPIVKSFNRNEC

Experiments:
OV90 cells = experiment: MTT cell viability assay, antibody and chemotherapeutic agent treatment; format: cell-based, human; conditions: 72 to 144 hours, S3F 0.033 nM-500 nM; for cell viability (MTT assay): STn+CD133+ OV90 and CSC sub-fractions, normalized to untreated control
Experimental: STn+CD133+OV90 and CSC sub-fractions were treated with unconjugated anti-STn antibody S3F [0.033 nM-500 nM] or with different concentrations of chemotherapeutic agents paclitaxel and/or carboplatin. OV90 cells were cultured for 72 to 144 hours with the indicated concentrations and cell viability was analyzed by MTT assay (FIG. 2). All values were normalized to the untreated control.

CSC tumors = experiment: Anti-CSC activity in vivo, tumors in NOD/SCID mice
Experimental: The growth conditions of CSC subfractions in NOD/SCID mice is established and analyzed. Anti-STn antibodies are administered to mice as conjugates with chemotherapy and treated mice are tested for toxicity and efficacy through mouse observations and weights.
An equivalent amount of serially-diluted positive or negative subfraction cells (i.e., 1×10^5, 1×10^4, and 1×10^3/mouse; 2-8 mice/group) are injected subcutaneously (s.c.) into NOD/SCID mice, to compare their potential to generate tumors. Following injection of tumor cells, the mice are monitored daily for evidence of tumor formation and general health.
For treatment, tumors may be generated in mice from up to four sources: 1) primary ovarian tumors; 2) xenograft tumors previously established in NOD/SCID mice; 3) cryopreserved xenograft tumor tissue; or 4) human ovarian cancer cell lines or isolated cell line subfractions based on CD133/STn expression. For each tumor type, once a sufficient number of mice have tumors ranging from 200-300 mm^3 in volume, the mice are randomized into 4 groups (n=8-14 mice/group) such that the mean group tumor volumes are essentially equivalent. […]
Tumors are then measured twice weekly with calipers [tumor volume=(Lmm×Wmm×[…])/2]. […]

[1] = system: STn in ovarian cancer tissue; experiment: Immunohistochemical staining of ovarian cancer tissue sections; format: binding; conditions: S3F as primary antibody; peroxidase-based secondary detection; compared to normal IgG and no primary antibody
From the text: Tissue sections from ovarian cancer tissue were subjected to immunohistochemical staining to identify cells expressing STn using S3F antibody as a primary antibody. Bound antibody was detected using a peroxidase-based secondary detection system.

Row | Molecule | cell viability (MTT assay) (OV90 cells) | efficacy in combination with standard chemotherapy agents used for ovarian cancer (CSC tumors) | growth of CSC tumors (CSC tumors; i.p. once weekly) | immunohistochemical staining [1] | dose dependence of effect on cell viability (OV90 cells; OV90 cells)
1 | N.N.O=C([O-])C1(C(=O)[O-])CCC1.[Pt+2] [carboplatin, reference compound] | Cell viability was reduced |  |  |  | 
2 | CC(=O)O[C@H]1C(=O)[C@@]2(C)[C@H]([C@H](OC(=O)c3ccccc3)[C@]3(O)C[C@H](OC(=O)[C@H](O)[C@@H](NC(=O)c4ccccc4)c4ccccc4)C(C)=C1C3(C)C)[C@]1(OC(C)=O)CO[C@@H]1C[C@@H]2O [paclitaxel, reference compound] | Cell viability was reduced |  |  |  | 
3 | B1 | Cell viability was reduced | increases the efficacy of the antibody | capable of delaying the growth of or eradicating CSC tumors | Numerous cells showed positive staining | most effective at higher doses tested
